{"source": "paper PMC6536502", "about": "“Structural insights into DNA recognition by AimR of the arbitrium communication system in the SPbeta phage” (Cell Discovery, 2019)", "binders": {"B1": {"name": "31 bp aimX-upstream palindromic DNA (dsDNA)", "DNA 1": "ACTTAAATATTAGGTTTTAATAACATCTAGT", "DNA 2": "ACTAGATGTTATTAAAACCTAATATTTAAGT"}}, "key": {"AimR N30A": {"target": "T1, AimR N30A (Bacillus phage SPbeta, UniProt O64094 1-386, N30A)", "T1 sequence": "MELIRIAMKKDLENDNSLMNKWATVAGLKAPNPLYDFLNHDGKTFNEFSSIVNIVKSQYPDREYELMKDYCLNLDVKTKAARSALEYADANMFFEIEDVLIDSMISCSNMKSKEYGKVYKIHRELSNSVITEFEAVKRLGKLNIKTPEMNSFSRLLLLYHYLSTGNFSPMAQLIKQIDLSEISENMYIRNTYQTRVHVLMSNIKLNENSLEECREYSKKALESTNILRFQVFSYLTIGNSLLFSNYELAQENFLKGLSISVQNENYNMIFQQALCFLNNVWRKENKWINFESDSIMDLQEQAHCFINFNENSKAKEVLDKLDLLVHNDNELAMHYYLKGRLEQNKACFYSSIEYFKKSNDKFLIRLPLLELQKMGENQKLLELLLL", "test": "EMSA; EMSA: 25 mM Tris-HCl pH 8.0, 150 mM NaCl, 5 mM MgCl2, 5 mM DTT, 0.1 mg/ml BSA, 10% glycerol, 50 ug/ml salmon sperm DNA, 4 C, 15 min; smFRET: 20 mM phosphate pH", "details": "protein: recombinant; tags: 6xHis removed by drICE; chain copies: 2"}, "AimR": {"target": "T2, AimR (Bacillus phage SPbeta, UniProt O64094 1-386)", "T2 sequence": "T1 sequence with A30N", "test": "EMSA; 5 mM Mg2+; EMSA: 25 mM Tris-HCl pH 8.0, 150 mM NaCl, 5 mM MgCl2, 5 mM DTT, 0.1 mg/ml BSA, 10% glycerol, 50 ug/ml salmon sperm DNA, 4 C, 15 min; smFRET: 20 mM phosphate pH", "details": "protein: recombinant; tags: C-terminal 8xHis; chain copies: 2"}, "AimR N32A": {"target": "T3, AimR N32A (Bacillus phage SPbeta, UniProt O64094 1-386, N32A)", "T3 sequence": "T1 sequence with A30N, N32A", "test": "EMSA; 5 mM Mg2+; EMSA: 25 mM Tris-HCl pH 8.0, 150 mM NaCl, 5 mM MgCl2, 5 mM DTT, 0.1 mg/ml BSA, 10% glycerol, 50 ug/ml salmon sperm DNA, 4 C, 15 min; smFRET: 20 mM phosphate pH", "details": "protein: recombinant; tags: 6xHis removed by drICE; chain copies: 2"}}, "note": "Changes are numbered by the printed parent chain."}
{"binder": "B1", "values": [{"measurement": "binding result", "setting": "AimR N30A", "result": "binds"}, {"measurement": "Kd", "setting": "AimR", "result": "0.101 ± 0.0276", "unit": "µM"}, {"measurement": "Kd", "setting": "AimR N32A", "result": "6.82 ± 2.25", "unit": "µM"}]}
